For this data set, the system named is HEK293 cells. It is filed as cell-based, human. The settings on record: luminescence from secreted Gluc in supernatant 24 hours after transfection of HEK293 cells; circular RNA encoding Gluc with the named IRES (UTR truncated to 675 nt).

B1: Hubei picorna-like virus 2 (nucleic acid)
DNA: AGCAACTTCTTTCTGAAAACTAGCTAGAGTTCGACGATCTCTCTGGCTAATGACAAATAACCAATCAAAAAGTCAAATGTTCATGTATATATATATTTAGTAGTGACCTTTATTTAGAAAAACTTTAGATGATTTATCGTCAAGTTGCCCTTTGTGAAGCGATCAGCTTTTTATATCGTTTCATTTTTGTATACGTCTTAATTGACGTTGTAAGTACGTTTTGCATACCTCACATTGAGGATAGTATCGTTTCCTGACTAAGAAGTTAAACTAGTCTACCAATAGCAACCATATAGGATATAGCTTTGTTTTTAACAAGGTTTAATCTGATCTTATGCTCTTGCTTACGGTGTTTTATGTATAGAAAAGTTTTTATAAAAACTACATAATTGTCAAAAGAAAAAGCGTTACGTACTGACGCATTTATGTTCACAGTGTGACACAAACCTTCTATATTTTGATTGTAAAATAGGCTTTGCCTGACCATTTATCAAATACAAACTGTTTCAAACGCCTCTCCGAGCCATATTGGCCGACGCGAATCGACATAACAGGGTGAGTTTACAGCTGCAGTTGCAGCCGAGGATCCACTTATTTGAGAGAGAATTACTCTTAACGAAATTTTGAAGTCACTTCTACACAGTTAAGTCTGAGTAGGCGTTATCCAAACGTAAA
Consider B1, for which the Expression was determined as 1.95E+05.

B2: Hubei tombus-like virus 32 (nucleic acid)
DNA: TTCGGGTTTACCCGCGTAAGCGGCCACACTGACTGGTTGTCGGTGTTGAATTTGTATACCAGATGAGGAGACGTTACCACCGTCTCGGCAGTGCTACGTCTGGGAAAGGACTGTGATAGTGGACAGTCCTACCGTCTTTAGATACATTGCGTTGTGTATAGCCCGGGAGGGATTAACTAATAGCAACGCAATGCACACGGCGGTTCGGATTTGCTTGACTGATGGAAAGACATCTAAGTTCTAATTGAACC
Molecule B2 returned an Expression of 9.23E+04.

B3: Hubei tombus-like virus 9 (nucleic acid)
DNA: GGACCATCCAGGCAGGTGTAGGCTAGTACCCTCACCTGACCTGTCGCGATGTTTGGCTTTGTGAGGCTTGTGGGAGGATCCCTTGGCCCATGCATTGCTGCTGTCATCGTGAAAAATGTTGTATGCTCGCACCTGGCGTGGAGGAAACGGCATTTGACGGATGCTAAGGAGGATTTGAAGGTCCTCAACTCCCATGCCTTATTACAAGTCCCCTTTCCTTCAAGCTTCGAGCCCACGTCTGTGACGAGCAGAGGTGAGGTTGGAGTCAAGAGGAGTCCTATTCAAGCTGTTCGCAGCAAGAACCATAAAACTTTCATTGCTCAATGGGCAAGAGCGGCTAAGGCTCGGTTCTCGTTTGCACGACAGTGTGAGCGGAGCCCTGTAAATGTCGCGGCCCTTCATCGGTGGTTTGCATCGGAGTTTAAGAAAATTGGCATGAACTTGCTCCAGGTTTCGTACGTGATCGATGAGGTTGTTGAACTTAGTTTGGAACCAACGTATGAGCGTATGGTGTCCGAAACTAAGAAGCAATTCCGTCATCGGGCACGTATGGAATACTACAACGAGAAAAAATGCCTTGAAAAGATCCACTAGGAACGC
The molecule B3 had an Expression of 9.28E+04.

B4: Hepacivirus P (nucleic acid, listed as Hepacivirus sp.)
DNA: ACATGGGGGGGGGCTGACAGTGAGTACACTGTGCCAAGCAGGTGCTACGCTATGCCTAGGTGCTGCTGTAGGCCAAGGACATGTCCCAGTCATCCCAGGTGAGGGGGGGGGTTCCCCTCACCGCTGCCACTGCCTGATAGGGTCCTGCCGGAGGGTCTCGGTGTCCGGCTGTAC
B4 yielded an Expression of 6.04E+05.

B5: Hubei sobemo-like virus 3 (nucleic acid)
DNA: GAGATGTTTGCGTGGGCCGTTGCGCTGCGGGCGGCCCACCTCCCTACGGGGACCGTGAGACACCGCTGGGGAAGGCCCCCACCCCCGGCCAAGGGGATCCTGCCGAGAGGCAGGAGAAAGAGGCCCAGCCCTCTGGGGCGCCTTTAGGGGTGCCTGGGAGGGAAGTACCCGAGCCGGGCGGCCGGTCGGGTGCGGCTGTGCAGTTCGAGGCTAACCGTAAGGAAGGCCTGAGCTGCCTCGGCTTGTCGGAAAGGAAGACGAAGGCACTTATCAAGGCTTTCAGGAAGCAGGAGCGCAATTACAGCGCGCGCCGTGCGGCCTGGATTAACCGCATTTGGCCG
In the case of B5, the Expression is 1.17E+05.
